Assay results published in article PMC6707828 (Biochemistry, 2018).

How the values were obtained:
SufS (alone) = SufS (alone) (Escherichia coli, UniProt P77444); conditions: covalent (Schiff base with K226)
[1] = molecular target: SufS (first binding site) (Escherichia coli) (UniProt P77444); assay: ITC; conditions: cited from earlier work
[2] = molecular target: SufS (second binding site) (Escherichia coli) (UniProt P77444); assay: ITC; conditions: cited from earlier work
SEC = molecular target: the molecule itself; assay: SEC

Cc1ncc(COP(=O)(O)O)c(C=O)c1O [PLP]
UV-Vis of PLP liberated from purified enzyme (SufS (alone)): UV-Vis spectroscopic analysis of PLP liberated from wild-type and the variant enzymes

SufE (from UniProt P76194)
Kd [1]: 4 µM
Kd [2]: 300 µM

B1: SufS E96A (enzyme, E. coli)
chain: MIFSVDKVRADFPVLSREVNGLPLAYLDSAASAQKPSQVIDAEAEFYRHGYAAVHRGIHTLSAQATEKMENVRKRASLFINARSAEELVFVRGTTAGINLVANSWGNSNVRAGDNIIISQMEHHANIVPWQMLCARVGAELRVIPLNPDGTLQLETLPTLFDEKTRLLAITHVSNVLGTENPLAEMITLAHQHGAKVLVDGAQAVMHHPVDVQALDCDFYVFSGHKLYGPTGIGILYVKEALLQEMPPWEGGGSMIATVSLSEGTTWTKAPWRFEAGTPNTGGIIGLGAALEYVSALGLNNIAEYEQNLMHYALSQLESVPDLTLYGPQNRLGVIAFNLGKHHAYDVGSFLDNYGIAVRTGHHCAMPLMAYYNVPAMCRASLAMYNTHEEVDRLVTGLQRIHRLLG
modifications: PLP cofactor (89-97% PLP incorporation)
stoichiometry N (SEC): 2

B2: SufS E250A (enzyme, E. coli)
chain: MIFSVDKVRADFPVLSREVNGLPLAYLDSAASAQKPSQVIDAEAEFYRHGYAAVHRGIHTLSAQATEKMENVRKRASLFINARSAEELVFVRGTTEGINLVANSWGNSNVRAGDNIIISQMEHHANIVPWQMLCARVGAELRVIPLNPDGTLQLETLPTLFDEKTRLLAITHVSNVLGTENPLAEMITLAHQHGAKVLVDGAQAVMHHPVDVQALDCDFYVFSGHKLYGPTGIGILYVKEALLQEMPPWAGGGSMIATVSLSEGTTWTKAPWRFEAGTPNTGGIIGLGAALEYVSALGLNNIAEYEQNLMHYALSQLESVPDLTLYGPQNRLGVIAFNLGKHHAYDVGSFLDNYGIAVRTGHHCAMPLMAYYNVPAMCRASLAMYNTHEEVDRLVTGLQRIHRLLG
modifications: PLP cofactor (89-97% PLP incorporation)
stoichiometry N (SEC): 2
